Where a chain is given by its changes, count along the chain named. One block for each binder: values may come before it.
Columns and labels:
[1] = biological target: T1, 人CD47蛋白 (Leukocyte surface antigen CD47) (human, UniProt Q08722 19-141); experiment: Biacore (SPR)
T1 construct: extracellular domain; The assays say only 'CD47'; also called human CD47

[2] = biological target: T1, 人CD47蛋白 (Leukocyte surface antigen CD47); experiment: Biacore (SPR), reference antibody of the comparison
[3] = biological target: T1, 人CD47蛋白 (Leukocyte surface antigen CD47); experiment: CD47 binding ELISA, hybridoma screening

T1 sequence (Q08722 19-141 limits assumed): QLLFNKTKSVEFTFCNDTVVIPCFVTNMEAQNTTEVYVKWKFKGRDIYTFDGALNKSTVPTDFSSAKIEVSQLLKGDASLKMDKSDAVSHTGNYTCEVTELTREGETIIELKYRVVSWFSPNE

KD ratio relative to hu167-4 [1]: 1.3
B1: hu167-31 (antibody, V domains shown)
VH: QVQLVQSGAEVKKPGASVKVSCKASGYTFTSYWMHWVRQAPGQGLEWMGNIDPSDSETHYNQKFKDRVTMTRDTSISTAYMELSRLRSDDTAVYYCARWGYLGRSAMDYWGQGTTVTVSS
VL: DVQMTQSPSSLSASVGDRVTITCRTSKSISKFLAWYQQKPGKAPKLLIYSGSTLQSGVPSRFSGSGSGTDFTLTISSLQPEDFATYYCQQHNEYPWTFGGGTKVEIK

KD ratio relative to hu167-4 [1]: 1.2
B2: hu167-32 (antibody, V domains shown)
VH: B1 VH
VL: B1 VL with V2I, M4I

KD ratio relative to hu167-4 [1]: 0.98
B3: hu167-33 (antibody, human IgG4 S228P, kappa, F234A L235A, V domains shown)
VH: B1 VH
VL: DVQITQSPSSLSASVGDRVTITCRTSKSISKFLAWYQQKPGKAPKLLIYSGSTLQSGVPSRFSGSGSGTDFTLTISSLQPEDFATYYCQQHNEYPWTFGGGTKVEIKR

binding result [3]: binds
B7: 杂交瘤克隆167鼠源抗体 (antibody, V domains shown)
VH: QVQLQQPGAELVRPGSSVKLSCKASGYTFTSYWMHWVKQRPIQGLEWVGNIDPSDSETHYNQKFKDKATLTVDKSSSTAYMQLSSLTSEDSAVYYCARWGYLGRSAMDYWGQGTSVTVSS
VL: DVQITQSPSYLAASPGETITINCRTSKSISKFLAWYQEKPGKTHKLLIYSGSTLQSGIPSRFSGSGSGTDFTLTISSLEPEDFAMYYCQQHNEYPWTFGGGTKLEIK
notes: Mouse hybridoma antibody; also called 鼠源抗体167

Continued, binder first:

B4: hu055-5 (antibody, human IgG4 S228P, kappa, F234A L235A, V domains shown)
VH: QVQLVQSGAEVKKPGASVKVSCKASGYTFTSSYLHWVRQAPGQRLDWIGWIYPESGNTKYNERFKGRATLTADTSASTAYMELSSLRSEDTAVYYCARRGDVFFAYWGQGTTVTVSS
VL: DIVMTQSPDSLAVSLGERATINCKSSQSLLTSGKQKNYLTWYQQKPGQPPKLLIYWASTRESGVPDRFSGSGSGTDFTLTISSLQAEDVAVYYCQNDYSYPLTFGQGTKLEIKR
binding result [1]: binds

B5: 嵌合抗体ch-055 (antibody, V domains shown)
VH: QVLLQQSGPELVQPGASVKISCKASGYSFTSSYLHWVKQRPGQGLDWIGWIYPESGNTKYNERFKGKATLTADTSSSTAYMQLSSLTSEDSAVYYCSRRGDVFFAYWGQGTTLTVSS
VL: DIVMTQSPSYLTVTAGEKVTMSCKSSQSLLTSGKQKNYLTWYQQKPGQPPKLLIYWASTRESGVPERFRGSGSGTDFTLTISSVQAEDLAVYYCQNDYSYPLTFGAGTKLELN
notes: Chimeric antibody of clone 055
binding result [2]: binds

B6: 杂交瘤克隆055鼠源抗体 (antibody, V domains shown)
VH: B5 VH
VL: B5 VL
notes: Mouse hybridoma antibody; also called 鼠源抗体055
binding result [3]: binds
